Laboratory results from US20240043530A1 (JIANGSU HENGRUI PHARMACEUTICALS, published 2024).
Like-named read-outs stand apart in the source and are kept apart here.

Legend:
[1] = target: human PVRIG expressed on the cell surface (human) (UniProt Q6DKI7); assay: cell-based or functional assay
[2] = target: T1, cynomolgus monkey PVRIG expressed on the cell surface (cynomolgus monkey, UniProt A0A2K5WVV8 1-322); assay: flow cytometry on cells overexpressing cynomolgus monkey PVRIG, labelled anti-human IgG (method of Example 5)
T1 construct: whole, on cells; also called cells overexpressing cynomolgus monkey PVRIG; Monkey PVRIG FACS
T1 sequence: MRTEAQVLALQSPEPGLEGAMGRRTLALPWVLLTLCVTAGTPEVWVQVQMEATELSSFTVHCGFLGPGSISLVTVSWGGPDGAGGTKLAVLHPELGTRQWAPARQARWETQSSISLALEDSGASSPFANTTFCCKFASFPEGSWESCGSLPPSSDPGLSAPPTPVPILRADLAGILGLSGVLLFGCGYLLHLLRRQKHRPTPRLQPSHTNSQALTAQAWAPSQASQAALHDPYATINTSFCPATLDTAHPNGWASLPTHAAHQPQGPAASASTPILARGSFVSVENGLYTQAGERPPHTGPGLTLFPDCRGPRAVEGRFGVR
Protocol: The expression plasmid carries human or cynomolgus monkey PVRIG gene sequence was transfected into HEK293 cells, and the over-expressing stable transfection monoclonal cell strain was obtained by antibiotic screening and infinite dilution. Overexpressing cells were seeded into a 96-well plate at 2×10⁵ cells/per well. The cells were centrifuged at 300 g for 5 min, the supernatant was then removed, 100 μL of the test antibody was added, and the mixture was incubated at 4° C. for 1 h. The mixture was centrifuged, the supernatant was removed, the plate was washed 3 times with 200 μL of a washing solution (PBS+2% FBS), and then 100 μL of an anti-human IgG secondary antibody (Invitrogen, A-11013) labeled with Alexa Fluor 488 diluted at 1:500 was added. The mixture was incubated at 4° C. for 1 h. The mixture was centrifuged, the supernatant was removed, and the plate was washed 3 times with 200 μL of a washing solution (PBS+2% FBS). Cells were resuspended in 100 μL of PBS and detected by a flow cytometer (BD FACS Calibur or BD FACS Canto_II).
(§1) Binding of the humanized anti-PVRIG/TIGIT bispecific antibodies to human and cynomolgus monkey PVRIG and their blocking of the ligand of human PVRIG were detected according to the methods of Examples 4, 5 and 6.

[3] = target: T2, his-tagged cynomolgus monkey PVRIG recombinant protein (cynomolgus monkey); assay: ELISA, plate coated with cynomolgus monkey PVRIG recombinant protein, HRP anti-human IgG, OD450 (method of Example 4)
T2 construct: expressed in HEK293, purified by Ni-NTA; also called cyno-PVRIG-his; Cynomolgus monkey PVRIG-his
T2 chain: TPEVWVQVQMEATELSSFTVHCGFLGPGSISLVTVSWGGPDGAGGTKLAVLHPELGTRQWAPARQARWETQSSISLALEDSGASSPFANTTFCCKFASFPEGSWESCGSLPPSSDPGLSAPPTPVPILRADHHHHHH
Protocol: Human, cynomolgus monkey or mouse PVRIG protein (at a concentration of 1 μg/mL) was coated on a 96-well microplate at 100 μL per well, and incubated overnight at 4° C. The plate was washed three times with a washing solution at 250 μL per well. For each wash, the plate was shaken for 10 s to ensure adequate cleaning. A blocking solution (PBS+0.05% Tween20+1% BSA) was added at 300 μL per well and the plate was incubated at room temperature for 1 h. The plate was washed three times with a washing solution at 250 μL per well. For each wash, the plate was shaken for 10 s to ensure adequate cleaning. The test anti-PVRIG antibody diluted in diluent was added at 100 μL per well. The mixture was incubated at 37° C. for 1 h. The plate was washed three times with a washing solution at 250 μL per well. HRP-labeled anti-human IgG secondary antibody (Sigma, A8667) was added at 100 μL per well. The mixture was incubated at 37° C. for 1 h. The plate was washed three times with a washing solution at 250 μL per well. […] The OD values at 450 nm were read by using a Thermo MultiSkanFc microplate reader, and the EC₅₀ values of the binding of the anti-PVRIG antibodies to PVRIG were calculated.
as §1

[4] = target: T3, human PVRIG expressed on the cell surface (human, UniProt Q6DKI7 41-326); assay: cell-based or functional assay
T3 sequence (looked up): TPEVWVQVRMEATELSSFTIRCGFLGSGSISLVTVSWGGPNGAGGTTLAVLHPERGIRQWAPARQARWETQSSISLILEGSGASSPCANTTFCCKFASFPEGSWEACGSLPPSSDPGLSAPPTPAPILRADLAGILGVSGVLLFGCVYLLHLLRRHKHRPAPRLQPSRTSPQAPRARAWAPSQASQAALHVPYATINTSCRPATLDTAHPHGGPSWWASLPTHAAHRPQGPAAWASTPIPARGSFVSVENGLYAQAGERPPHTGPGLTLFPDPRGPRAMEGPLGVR

[5] = target: T3, human PVRIG expressed on the cell …; assay: cell-based or functional assay; remark: listed apart in the source
[6] = target: T3, human PVRIG expressed on the cell …; assay: cell-based or functional assay; remark: listed apart in the source
[7] = target: T3, human PVRIG expressed on the cell …; assay: cell-based or functional assay; remark: listed apart in the source
[8] = target: T3, human PVRIG expressed on the cell …; assay: cell-based or functional assay; remark: listed apart in the source

IgG4 control antibody
IFNγ (pg/mL) in mixed lymphocyte reaction, 20 nM antibody (control) [1]: 74 pg/mL | IFNγ (pg/mL) in mixed lymphocyte reaction, 100 nM antibody (control) [1]: 89 pg/mL | Killing activity (%) of NK92 on K562, 4 nM antibody (control) [1]: 11.2% | Killing activity (%) of NK92 on K562, 20 nM antibody (control) [1]: 11.7% | Killing activity (%) of NK92 on K562, 100 nM antibody (control) [1]: 9.2%

B1: anti-TIGIT antibody 1708 (antibody, human IgG4 S228P, kappa, V domains shown)
VH: EVQLVQSGAEVKKPGASVKVSCKASGYTFTNYWMHWVRQAPGQGLEWMGRIDPDSTGSKYNEKFKTRVTMTRDTSTSTVYMELSSLRSEDTAVYYCAREGAYGYYFDYWGQGTLVTVSS
VL: DIQMTQSPSSLSASVGDRVTITCRASENIYSYLAWYQQKPGKSPKLLIYNARTLAEGVPSRFSGSGSGTDFTLTISSLQPEDFATYYCQYHSGSPLPFGGGTKVEIKR
notes: human IgG4 subtype with S228P; kappa light chain
binding result [2]: no binding (tested: about 200 nM) | binding result [3]: no binding (tested: about 20 nM)

B2: positive antibody Tab5 (antibody, human IgG4 S228P, kappa, F234A L235A, V domains shown)
VH: EVQLVESGGGVVKPGGSLRLSCAASGFTFGTSSMNWVRQAPGKGLEWVAVISFDGTEIHYADSVKGRFTISRDNSKSTVFLQMNSLRPDDTALYYCAKGSGNIYFYSGMDVWGQGTTVTVSS
VL: DIQMTQSPSTLSASVGDRVTITCRAGQSISGWLAWFQQKPGKAPNLLIYETSTLESGVPSRFSGSGSGTEYTLTISSLQPDDFATYYCQQYYSYPLTFGQGTKVEIKR
Experiment on activity in PVRIG reporter cells EC50 [4]: 0.74 nM | Killing activity (%) of NK92 on K562, 20 nM antibody [5]: 32% | Killing activity (%) of NK92 on K562, 100 nM antibody [5]: 32% | IFNγ (pg/mL) in mixed lymphocyte reaction, 4 nM antibody [6]: 912 pg/mL | IFNγ (pg/mL) in mixed lymphocyte reaction, 20 nM antibody [6]: 1420 pg/mL | IFNγ (pg/mL) in mixed lymphocyte reaction, 100 nM antibody [6]: 2350 pg/mL | Experiment on activity in PVRIG reporter cells EC50 [7]: 1.38 nM | Killing activity (%) of NK92 on K562, 4 nM antibody [8]: 5.9% | Killing activity (%) of NK92 on K562, 20 nM antibody [8]: 7.9% | Killing activity (%) of NK92 on K562, 100 nM antibody [8]: 10%
